Results on two molecules are retold here after paper PMC4631118 (Molecular microbiology, 2012).

In test [1] the target is T1, MBP-A2 (Qβ lysis protein A2 fused to E. coli maltose-binding protein) (bacteriophage Qβ, UniProt Q8LTE2 1-420).
T1 sequence (looked up): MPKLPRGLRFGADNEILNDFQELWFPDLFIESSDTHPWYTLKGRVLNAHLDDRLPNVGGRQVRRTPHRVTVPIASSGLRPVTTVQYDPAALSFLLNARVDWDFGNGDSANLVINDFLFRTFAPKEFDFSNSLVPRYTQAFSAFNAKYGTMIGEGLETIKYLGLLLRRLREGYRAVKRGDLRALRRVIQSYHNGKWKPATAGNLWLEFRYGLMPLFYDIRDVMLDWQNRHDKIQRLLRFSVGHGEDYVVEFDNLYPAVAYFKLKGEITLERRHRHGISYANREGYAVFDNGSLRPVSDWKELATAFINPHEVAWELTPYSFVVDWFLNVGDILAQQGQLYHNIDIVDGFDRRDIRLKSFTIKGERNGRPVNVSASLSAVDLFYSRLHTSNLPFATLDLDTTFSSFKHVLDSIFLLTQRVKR
Briefly: pull-down.

The target of test [2] is T2, A2 cleaved from the MBP fusion protein with TEV protease (bacteriophage Qβ, UniProt Q8LTE2 1-420).
T2 sequence (looked up): T1 sequence (looked up)
Description: fusion cleavage assay.

Changes are numbered by the printed parent chain. Names and notes keep the numbering of the source.

B1: MurA (E. coli), purified, with C-terminal oligo-histidine tag (enzyme)
chain: MDKFRVQGPTKLQGEVTISGAKNAALPILFAALLAEEPVEIQNVPKLKDVDTSMKLLSQLGAKVERNGSVHIDARDVNVFCAPYDLVKTMRASIWALGPLVARFGQGQVSLPGGCTIGARPVDLHISGLEQLGATIKLEEGYVKASVDGRLKGAHIVMDKVSVGATVTIMCAATLAEGTTIIENAAREPEIVDTANFLITLGAKISGQGTDRIVIEGVERLGGGVYRVLPDRIETGTFLVAAAISRGKIICRNAQPDTLDAVLAKLRDAGADIEVGEDWISLDMHGKRPKAVNVRTAPHPAFPTDMQAQFTLLNLVAEGTGFITETVFENRFMHVPELSRMGAHAEIESNTVICHGVEKLSGAQVMATDLRASASLVLAGCIAEGTTVVDRIYHIDRGYERIEDKLRALGANIERVKGE
For the molecule B1, the binding result in test [1] is reported as “binds”.

B2: MurA^D305A, purified (enzyme, E. coli)
chain: B1 chain with D305A
B2: the binding result in test [2] is “binds”.
